Reference: article PMC2173740 (The Journal of Cell Biology, 2003)
Values joined by “and” are separate entries in the source; they are usually repeats but may differ in a detail not shown here. Identical values can stand only once. Each block holds one binder with its values, some of them ahead of it.

Tests used:
[1] = molecular target: 86-kD fragment of Toc159 (pea (endogenous in pea chloroplast outer envelope)); test: subunit quantification by Coomassie staining
[2] = molecular target: 86-kD fragment of Toc159 (pea (endogenous in pea chloroplast outer envelope)); test: subunit quantification by immunoblot
[3] = molecular target: 86-kD fragment of Toc159 (pea (endogenous in pea chloroplast outer envelope)); test: subunit quantification by radioactive NEM labelling of cysteines
Toc75 = molecular target: T1, Toc75 (pea (endogenous in pea chloroplast …, UniProt Q43715 132-809)); test: co-sedimentation
T1 sequence (looked up): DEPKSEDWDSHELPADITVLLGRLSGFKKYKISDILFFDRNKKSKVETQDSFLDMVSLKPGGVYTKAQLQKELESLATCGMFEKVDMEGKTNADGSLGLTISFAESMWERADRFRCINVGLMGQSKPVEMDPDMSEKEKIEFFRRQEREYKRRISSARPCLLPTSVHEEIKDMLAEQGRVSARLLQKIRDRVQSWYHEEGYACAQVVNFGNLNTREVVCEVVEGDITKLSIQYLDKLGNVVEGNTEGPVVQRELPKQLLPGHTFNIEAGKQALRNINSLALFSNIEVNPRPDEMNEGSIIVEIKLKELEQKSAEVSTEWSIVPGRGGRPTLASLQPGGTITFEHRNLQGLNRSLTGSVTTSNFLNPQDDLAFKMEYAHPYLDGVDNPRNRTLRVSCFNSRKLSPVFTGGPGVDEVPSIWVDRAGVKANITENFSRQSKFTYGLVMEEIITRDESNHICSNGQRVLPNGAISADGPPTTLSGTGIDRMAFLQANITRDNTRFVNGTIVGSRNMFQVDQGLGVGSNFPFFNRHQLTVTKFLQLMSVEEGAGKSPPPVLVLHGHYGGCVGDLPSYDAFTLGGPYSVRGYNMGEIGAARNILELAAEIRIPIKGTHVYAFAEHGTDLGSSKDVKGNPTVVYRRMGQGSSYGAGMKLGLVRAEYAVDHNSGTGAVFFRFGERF

stoichiometry N (molecules per Toc159) [1]: 4 | stoichiometry N (molecules per Toc159) [2]: 4 to 5 | stoichiometry N (molecules per Toc159) [3]: 4
B1: Toc75 (natural protein)
chain: T1 sequence (looked up)

stoichiometry N (molecules per Toc159) [1]: 4 to 6 | binding result (Toc75): binds | stoichiometry N (molecules per Toc159) [2]: 4 and 6 | stoichiometry N (molecules per Toc159) [3]: 4 to 5
B2: Toc34 (natural protein, UniProt Q41009 1-310, looked up)
chain: MASQQQTVREWSGINTFAPATQTKLLELLGNLKQEDVNSLTILVMGKGGVGKSSTVNSIIGERVVSISPFQSEGPRPVMVSRSRAGFTLNIIDTPGLIEGGYINDMALNIIKSFLLDKTIDVLLYVDRLDAYRVDNLDKLVAKAITDSFGKGIWNKAIVALTHAQFSPPDGLPYDEFFSKRSEALLQVVRSGASLKKDAQASDIPVVLIENSGRCNKNDSDEKVLPNGIAWIPHLVQTITEVALNKSESIFVDKNLIDGPNPNQRGKLWIPLIFALQYLFLAKPIEALIRRDIATETKPAWETRDVGDRK
